Positions of bridges follow the written chain, without caps; N, C: chain ends. Non-standard residues stand in square brackets, D forms with d. Residues, ends and D or L forms follow the SMILES beside them. Triazole bridges read from a SMILES are 1,4-linked. Lys(N3) = [N-]=[N+]=NCCCC[C@H](N)C(=O)O; Cha = N[C@@H](CC1CCCCC1)C(=O)O; Pra = C#CC[C@H](N)C(=O)O
Experiments:
[1] = molecular target: purified bimane labeled ghrelin receptor (human, cysmin mutant, in lipidated nanodiscs) (human) (UniProt Q92847); experiment: cell-based or functional assay
[2] = test system: HEK293 cells overexpressing the ghrelin receptor; experiment: Fluorescence microscopy of cell permeability; type: cell-based, human; conditions: 5 μM, 3 h 45 min, 37° C.
Method: To visualise cell-penetration of the peptides, HEK293 1C8 cells were seeded in 12-well plates, covered with a coverslip, at 120,000 cells/well. After overnight incubation (37° C., 5% CO2), cells were washed with PBS and treated with the fluorescently labeled peptides for 2 h45. Next, BG-fluorescein was added to the mixture, for Snap tag labeling of the cell-surface GHSR. After incubation of 1 h the cells were washed four times with PBS. Cells were then fixed using 4% paraformaldehyde in PBS for 5 min and washed two times with PBS. Finally, Hoechst was diluted 1/1000 in PBS, added to the fixed cells during 10 min, and washed thrice with PBS.
The cells for permeabilization were first incubated with BG-fluorescein during 1 h, followed by four times washing with PBS. The cells were then fixed with 4% paraformaldehyde in PBS for 5 min washed twice. Afterwards, the cells were permeabilized with Triton 0.1% in PBS during 5 min and washed thrice. Finally, the cells were incubated for 3 h 45 with the peptide and washed three times before Hoechst was added for 10 min.
The SulfoCy5-labeled Gq/11 peptidomimetics of Example 5 were also analyzed by fluorescence microscopy to investigate their cell membrane permeability. HEK293 cells overexpressing the ghrelin receptor were seeded overnight on microscope slides. The cells were incubated with 5 μM of SulfoCy5-labeled Gq/11 peptidomimetics for 3 h 45 min at 37° C., followed by Hoechst staining for visualizing the nucleus. The cell membrane was visualized by staining the cell surface ghrelin receptors with fluorescein.

HEK293 1C8 cells = experiment: MTT cytotoxicity assay; type: cell-based, human; conditions: varying concentrations up to 40 μM, 3 h 45 min
Method: (§1) Cells were washed two times with PBS and incubated with 3-(4,5-dimethylthiazol-2-yl)-2,5-diphenyltetrazolium bromide (MTT) during 3 h, at 37° C. Afterwards, cells were washed once with PBS and then incubated for 10 min with DMSO. Plates were analysed with a Tecan Spark 10 M microplate reader.
(§2) An MTT assay was used to assess the cytotoxicity of the non-fluorescent Gq/11 peptidomimetics of Example 5. An MTT assay is a colorimetric test that evaluates the cell metabolic activity and reflects the cell viability.

MTT cytotoxicity assay = type: cell-based, human; conditions: human, HEK293 1C8 cells, 3 h 45 min, read-out: cell viability
Method: as §1, §2

[3] = molecular target: T1, full-length human muscarinic 1 receptor with a FLAG tag at the N-terminus (human, UniProt P11229 1-460); experiment: cell-based or functional assay
T1 sequence: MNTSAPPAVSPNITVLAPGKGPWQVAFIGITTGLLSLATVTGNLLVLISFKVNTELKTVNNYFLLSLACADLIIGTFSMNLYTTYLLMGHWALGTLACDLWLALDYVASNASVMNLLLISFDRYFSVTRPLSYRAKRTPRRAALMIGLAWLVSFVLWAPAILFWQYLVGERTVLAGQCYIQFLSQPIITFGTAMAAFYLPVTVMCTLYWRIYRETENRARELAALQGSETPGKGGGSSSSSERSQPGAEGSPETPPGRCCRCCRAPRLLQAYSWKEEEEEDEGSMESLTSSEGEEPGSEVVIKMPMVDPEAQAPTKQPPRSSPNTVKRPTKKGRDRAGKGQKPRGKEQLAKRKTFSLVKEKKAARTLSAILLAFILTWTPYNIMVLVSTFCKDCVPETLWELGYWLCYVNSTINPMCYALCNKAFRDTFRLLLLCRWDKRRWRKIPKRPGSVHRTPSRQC

[4] = molecular target: T2, ghrelin receptor overexpressed on HEK293 cells (UniProt Q92847 1-366, limits assumed); experiment: cell-based or functional assay
[5] = molecular target: T2, ghrelin receptor overexpressed on …; experiment: cell-based or functional assay; remark: listed apart in the source

T2 sequence (Q92847 whole entry): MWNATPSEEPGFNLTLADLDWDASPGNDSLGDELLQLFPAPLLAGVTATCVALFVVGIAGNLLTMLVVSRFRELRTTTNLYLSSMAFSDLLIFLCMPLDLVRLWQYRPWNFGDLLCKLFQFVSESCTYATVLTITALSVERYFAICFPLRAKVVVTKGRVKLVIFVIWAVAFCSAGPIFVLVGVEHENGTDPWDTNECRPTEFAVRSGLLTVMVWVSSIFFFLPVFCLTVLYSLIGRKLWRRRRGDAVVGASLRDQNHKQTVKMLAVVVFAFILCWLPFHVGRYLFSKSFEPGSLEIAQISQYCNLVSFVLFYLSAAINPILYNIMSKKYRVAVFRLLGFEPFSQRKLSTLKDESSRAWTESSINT
Chain of purified bimane labeled ghrelin receptor (human, cysmin mutant, in lipidated nanodiscs) (human) (Q92847 other isoform, or with tags, fused parts or gaps mutant): as the sequence (Q92847 whole entry) above, with C146S, C304S counted along it

purified Gαqβ1γ2 heterotrimer
bimane maximum emission wavelength, with agonist JMV1843 [1]: 480 nm

H-C(SulfoCy5)-Ahx-RRRRFAc[PraVKDAzk]ILQLNLKEYNLV-OH [SBL-GQ-22]
SulfoCy5-labeled peptide observed inside cells [2]: very little or no

dynorphin [reference compound]
SulfoCy5-labeled peptide observed inside cells [2]: very little or no

CC[C@H](C)[C@H](NC(=O)[C@@H]1CCCCn2cc(nn2)C[C@H](NC(=O)[C@H](C)NC(=O)[C@H](Cc2ccccc2)NC(=O)[C@H](CCCCN)NC(=O)[C@H](CCCCN)NC(=O)[C@@H](N)CCCCN)C(=O)N[C@@H](C(C)C)C(=O)N[C@@H](CCCCN)C(=O)N[C@@H](CC(=O)O)C(=O)N1)C(=O)N[C@@H](CC(C)C)C(=O)N[C@@H](CCC(N)=O)C(=O)N[C@@H](CC(C)C)C(=O)N[C@@H](CC(N)=O)C(=O)N[C@@H](CC(C)C)C(=O)N[C@@H](CCCCN)C(=O)N[C@@H](CCC(=O)O)C(=O)N[C@@H](Cc1ccc(O)cc1)C(=O)N[C@@H](CC(N)=O)C(=O)N[C@@H](CC(C)C)C(=O)N[C@H](C(=O)O)C(C)C [SBL-GQ-13] (H-KKKFA[Pra]VKD[Lys(N3)]ILQLNLKEYNLV-OH; triazole 6-10)
cytotoxicity / viability (HEK293 1C8 cells): No cytotoxicity

H-C(SulfoCy5)-Ahx-RRRRRRRRFAc[PraVKDAzk]ILQLNLKEYNLV-OH [SBL-GQ-23]
SulfoCy5-labeled peptide observed inside cells [2]: entered cells

H-C(SulfoCy5)-Ahx-RRWWRRWRRFAc[PraVKDAzk]ILQLNLKEYNLV-OH [SBL-GQ-24]
SulfoCy5-labeled peptide observed inside cells [2]: entered cells

CC[C@H](C)[C@H](NC(=O)[C@@H]1CCCCn2cc(nn2)C[C@H](NC(=O)[C@H](C)NC(=O)[C@H](Cc2ccccc2)NC(=O)[C@H](CCCNC(=N)N)NC(=O)[C@H](CCCNC(=N)N)NC(=O)[C@H](CCCNC(=N)N)NC(=O)[C@H](CCCNC(=N)N)NC(=O)[C@H](CCCNC(=N)N)NC(=O)[C@H](CCCNC(=N)N)NC(=O)[C@H](CCCNC(=N)N)NC(=O)[C@@H](N)CCCNC(=N)N)C(=O)N[C@@H](C(C)C)C(=O)N[C@@H](CCCCN)C(=O)N[C@@H](CC(=O)O)C(=O)N1)C(=O)N[C@@H](CC(C)C)C(=O)N[C@@H](CCC(N)=O)C(=O)N[C@@H](CC(C)C)C(=O)N[C@@H](CC(N)=O)C(=O)N[C@@H](CC(C)C)C(=O)N[C@@H](CCCCN)C(=O)N[C@@H](CCC(=O)O)C(=O)N[C@@H](Cc1ccc(O)cc1)C(=O)N[C@@H](CC(N)=O)C(=O)N[C@@H](CC(C)C)C(=O)N[C@H](C(=O)O)C(C)C [SBL-GQ-15] (H-RRRRRRRRFA[Pra]VKD[Lys(N3)]ILQLNLKEYNLV-OH; triazole 11-15)
viability at 5 µM (MTT cytotoxicity assay): ~90%
viability at 10 µM (MTT cytotoxicity assay): ~70%
viability at 40 µM (MTT cytotoxicity assay): ~50%

CC[C@H](C)[C@H](NC(=O)[C@@H]1CCCCn2cc(nn2)C[C@H](NC(=O)[C@H](C)NC(=O)[C@H](Cc2ccccc2)NC(=O)[C@H](CCCNC(=N)N)NC(=O)[C@H](CCCNC(=N)N)NC(=O)[C@H](Cc2c[nH]c3ccccc23)NC(=O)[C@H](CCCNC(=N)N)NC(=O)[C@H](CCCNC(=N)N)NC(=O)[C@H](Cc2c[nH]c3ccccc23)NC(=O)[C@H](Cc2c[nH]c3ccccc23)NC(=O)[C@H](CCCNC(=N)N)NC(=O)[C@@H](N)CCCNC(=N)N)C(=O)N[C@@H](C(C)C)C(=O)N[C@@H](CCCCN)C(=O)N[C@@H](CC(=O)O)C(=O)N1)C(=O)N[C@@H](CC(C)C)C(=O)N[C@@H](CCC(N)=O)C(=O)N[C@@H](CC(C)C)C(=O)N[C@@H](CC(N)=O)C(=O)N[C@@H](CC(C)C)C(=O)N[C@@H](CCCCN)C(=O)N[C@@H](CCC(=O)O)C(=O)N[C@@H](Cc1ccc(O)cc1)C(=O)N[C@@H](CC(N)=O)C(=O)N[C@@H](CC(C)C)C(=O)N[C@H](C(=O)O)C(C)C [SBL-GQ-25] (H-RRWWRRWRRFA[Pra]VKD[Lys(N3)]ILQLNLKEYNLV-OH; triazole 12-16)
viability at 5 µM (MTT cytotoxicity assay): ~90%
viability at 10 µM (MTT cytotoxicity assay): ~85%
viability at 40 µM (MTT cytotoxicity assay): ~50%

H-C(SulfoCy5)-Ahx-KKKFAc[PraVKDAzk]ILQLNLKEYNLV-OH [SBL-GQ-21]
SulfoCy5-labeled peptide observed inside cells [2]: very little or no

B1: SBL-GQ-12 (peptide)
peptide: Ac-KKKFN[Pra]CKD[Lys(N3)]ILQMNLREYN[Cha]V-OH
modifications: triazole 6-10
bimane maximum emission wavelength, with agonist JMV1843 [1]: 478 nm
IC50 (µM) of the agonist acetylcholine chloride for the M1 receptor in the presence of the peptidomimetic, RLA [3]: 13.7 µM
Shift (IC50 ratio without/with peptidomimetic), RLA [3]: 34

B2: SBL-GQ-11 (peptide)
peptide: Ac-KKKFN[Pra]CKD[Lys(N3)]ILQMNLREYNLV-OH
modifications: triazole 6-10
bimane maximum emission wavelength, with agonist JMV1843 [1]: 478 nm
IC50 (µM) of the agonist acetylcholine chloride for the M1 receptor in the presence of the peptidomimetic, RLA [3]: 57.7 µM
Shift (IC50 ratio without/with peptidomimetic), RLA [3]: 7

B3: SBL-GQ-25 (peptide)
peptide: H-RRWWRRWRRFA[Pra]VKD[Lys(N3)]ILQLNLKEYNLV-OH
modifications: triazole 12-16
EC50 (M) of the MK0677 agonist, IP-One Gq assay, SBL-GQ-25 5 µM, n = 1 [4]: 7.82e-10 M
EC50 (M) of the MK0677 agonist, IP-One Gq assay, SBL-GQ-25 5 µM, n = 2 [4]: 1.7e-10 M
EC50 (M) of the MK0677 agonist, IP-One Gq assay, SBL-GQ-25 10 µM, n = 1 [4]: 1.54e-09 M
EC50 (M) of the MK0677 agonist, IP-One Gq assay, SBL-GQ-25 10 µM, n = 2 [4]: 4.65e-10 M

B4: SBL-GQ-06 (peptide)
peptide: Ac-KKKFA[Pra]VKD[Lys(N3)]ILQLNLKEYN[Cha]V-OH
modifications: triazole 6-10
bimane maximum emission wavelength, with agonist JMV1843 [1]: 478 nm
IC50 (µM) of the agonist acetylcholine chloride for the M1 receptor in the presence of the peptidomimetic, RLA [3]: 54.4 µM
Shift (IC50 ratio without/with peptidomimetic), RLA [3]: 8

B5: SBL-GQ-04 (peptide)
peptide: Ac-KKKFAAVKDTILQLNLKEYN[Cha]V-OH
SMILES: CC[C@H](C)[C@H](NC(=O)[C@@H](NC(=O)[C@H](CC(=O)O)NC(=O)[C@H](CCCCN)NC(=O)[C@@H](NC(=O)[C@H](C)NC(=O)[C@H](C)NC(=O)[C@H](Cc1ccccc1)NC(=O)[C@H](CCCCN)NC(=O)[C@H](CCCCN)NC(=O)[C@H](CCCCN)NC(C)=O)C(C)C)[C@@H](C)O)C(=O)N[C@@H](CC(C)C)C(=O)N[C@@H](CCC(N)=O)C(=O)N[C@@H](CC(C)C)C(=O)N[C@@H](CC(N)=O)C(=O)N[C@@H](CC(C)C)C(=O)N[C@@H](CCCCN)C(=O)N[C@@H](CCC(=O)O)C(=O)N[C@@H](Cc1ccc(O)cc1)C(=O)N[C@@H](CC(N)=O)C(=O)N[C@@H](CC1CCCCC1)C(=O)N[C@H](C(=O)O)C(C)C
EC50 (M) of the MK0677 agonist, IP-One Gq assay, peptidomimetic at 10 µM, n = 1 [5]: 4.42e-10 M
EC50 (M) of the MK0677 agonist, IP-One Gq assay, peptidomimetic at 10 µM, n = 2 [5]: 9.46e-11 M
EC50 (M) of the MK0677 agonist, IP-One Gq assay, peptidomimetic at 10 µM, n = 3 [5]: 9.87e-11 M
EC50 (M) of the MK0677 agonist, IP-One Gq assay, SBL-GQ-04 5 µM, n = 1 [4]: 3.18e-10 M
EC50 (M) of the MK0677 agonist, IP-One Gq assay, SBL-GQ-04 5 µM, n = 2 [4]: 1.41e-10 M
IC50 (µM) of the agonist acetylcholine chloride for the M1 receptor in the presence of the peptidomimetic, RLA [3]: 213 µM
Shift (IC50 ratio without/with peptidomimetic), RLA [3]: 4

B6: SBL-GQ-15 (peptide)
peptide: H-RRRRRRRRFA[Pra]VKD[Lys(N3)]ILQLNLKEYNLV-OH
modifications: triazole 11-15
EC50 (M) of the MK0677 agonist, IP-One Gq assay, peptidomimetic at 10 µM, n = 1 [5]: 2.75e-10 M
EC50 (M) of the MK0677 agonist, IP-One Gq assay, peptidomimetic at 10 µM, n = 2 [5]: 1.07e-10 M
EC50 (M) of the MK0677 agonist, IP-One Gq assay, peptidomimetic at 10 µM, n = 3 [5]: 7.18e-11 M
EC50 (M) of the MK0677 agonist, IP-One Gq assay, SBL-GQ-15 5 µM, n = 1 [4]: 2.55e-10 M
EC50 (M) of the MK0677 agonist, IP-One Gq assay, SBL-GQ-15 5 µM, n = 2 [4]: 8.07e-11 M

B7: SBL-GQ-05 (peptide)
peptide: Ac-KKKFA[Pra]VKD[Lys(N3)]ILQLNLKEYNLV-OH
modifications: triazole 6-10
bimane emission as percent of the effect of the Gq protein, highest peptide concentrations [1]: 90%
bimane maximum emission wavelength, with agonist JMV1843 [1]: 478 nm
EC50 (M) of the MK0677 agonist, IP-One Gq assay, peptidomimetic at 10 µM, n = 1 [5]: 9.99e-10 M
EC50 (M) of the MK0677 agonist, IP-One Gq assay, peptidomimetic at 10 µM, n = 2 [5]: 1.53e-10 M
EC50 (M) of the MK0677 agonist, IP-One Gq assay, peptidomimetic at 10 µM, n = 3 [5]: 1.1e-10 M
IC50 (µM) of the agonist acetylcholine chloride for the M1 receptor in the presence of the peptidomimetic, RLA [3]: 330 µM
Shift (IC50 ratio without/with peptidomimetic), RLA [3]: 1
